B1: Retinoic acid receptor beta, residues 85 to 161; numbered along this chain, P10826 (parent)
chain: YKPCFVCQDKSSGYHYGVSACEGCKGFFRRSIQKNMIYTCHRDKNCVINKVTRNRCQYCRLQKCFEVGMSKESVRND

Variants of: B1
Experiment: abundance fitness (aPCA) (normalised: wild type 0, dead -1); higher = more abundant; growth selection in yeast, the domain comes from the species named
Settings: Homo sapiens

Abundance fitness, by site and new letter:
S12: H -0.034, W -0.106, I -0.096, M -0.102, C 0.168, N 0.023, P -0.227, K -0.207, G -0.242, T 0.067, D 0.16, A 0.057, R -0.32, Y -0.364, F -0.205, L -0.216, E -0.041, V 0.011
Y14: E -0.038, S -0.044, G -0.244, N -0.041, P 0.125, I 0.054, L 0.006, A 0.11, K 0.012, V 0.092, H 0.113, R -0.203, W 0.061, T 0.042, C -0.119
Y16: E 0.29, F 0.035, A -0.062, C -0.134, D 0.128
V6: Q -0.926, P -0.849, N -0.873, S -0.907, T -0.822, L -0.81, H -0.748, M -0.76, K -0.82, R -0.83, W -0.795, I -0.13
Q8: A 0.022, I -1.01, F -0.092, P -0.813, T 0.015, W -0.083, N -0.035, V -0.598, G 0.044, E 0.111, D 0.08, K 0, C -0.073, H 0.055, M 0.029, R -0.263, S 0.064
H15: C 0.016, E -0.129, N -0.015, G -0.25, I -0.348, A 0.033, F -0.111, T -0.046, K -0.276, Y 0.05, L -0.097, D 0.03, V -0.091, W -0.203, M -0.006
D9: G -0.588, T -1.01, P -1, S -0.71, F -0.65, I -0.726, C -0.525, M -0.457, Y -0.57, Q -0.6, N -0.828, R -0.631, W -0.529, V -0.753, A -0.465, K -0.722, H -0.543, E -0.03
S11: Y -0.407, P -0.088, K -0.242, Q -0.33, C -0.414, F -0.377, D 0, A -0.21, N 0.173, I -0.27, T -0.254, H -0.525, G -0.165, L -0.263, V -0.221
C7: D -0.724, N -0.615, T -0.438, V -0.879, Y -0.609, L -0.832, K -0.879, M -0.753, A -0.991, Q -1, F -0.999, G -1.05, H -0.932, E -1.23, S -0.868, W -0.656, I -0.806
K10: I 0.154, H 0.024, P -0.03, N 0.146, R 0.034, W -0.042, T 0.078, Y 0.115, M 0.078, V 0.007, A 0.147, D 0.112, L 0.043, S 0.165, F 0.026, C 0.019, G -0.045
G13: D 0.082, E -0.068, Y -0.206, S -0.055, W -0.673, F -0.349, T -0.053, R -0.289, Q -0.503, C -0.334, A -0.325, H -0.265, N -0.145, V -0.192, M -0.067, K -0.292, I -0.279, L -0.457
